Assay results: patent publication US20220074941A1, “HSP90 COMBINATION THERAPY” (Sloan-Kettering Institute for Cancer Research, priority 2011, published 2022)

B1: SDPR (protein, UniProt O95810 2-425, looked up)
Caveolae-associated protein 2: GEDAAQAEKFQHPGSDMRQEKPSSPSPMPSSTPSPSLNLGNTEEAIRDNSQVNAVTVLTLLDKLVNMLDAVQENQHKMEQRQISLEGSVKGIQNDLTKLSKYQASTSNTVSKLLEKSRKVSAHTRAVKERMDRQCAQVKRLENNHAQLLRRNHFKVLIFQEENEIPASVFVKQPVSGAVEGKEELPDENKSLEETLHTVDLSSDDDLPHDEEALEDSAEEKVEESRAEKIKRSSLKKVDSLKKAFSRQNIEKKMNKLGTKIVSVERREKIKKSLTSNHQKISSGKSSPFKVSPLTFGRKKVREGESHAENETKSEDLPSSEQMPNDQEEESFAEGHSEASLASALVEGEIAEEAAEKATSRGSNSGMDSNIDLTIVEDEEEESVALEQAQKVRYEGSYALTSEEAERSDGDPVQPAVLQVHQTS
B2: PTPLAD1 (protein, UniProt Q9P035 1-362, looked up)
Very-long-chain …: MENQVLTPHVYWAQRHRELYLRVELSDVQNPAISITENVLHFKAQGHGAKGDNVYEFHLEFLDLVKPEPVYKLTQRQVNITVQKKVSQWWERLTKQEKRPLFLAPDFDRWLDESDAEMELRAKEEERLNKLRLESEGSPETLTNLRKGYLFMYNLVQFLGFSWIFVNLTVRFCILGKESFYDTFHTVADMMYFCQMLAVVETINAAIGVTTSPVLPSLIQLLGRNFILFIIFGTMEEMQNKAVVFFVFYLWSAIEIFRYSFYMLTCIDMDWKVLTWLRYTLWIPLYPLGCLAEAVSVIQSIPIFNETGRFSFTLPYPVKIKVRFSFFLQIYLIMIFLGLYINFRHLYKQRRRRYGQKKKKIH
B3: PHB (protein, UniProt P35232 2-272, looked up)
Prohibitin 1: AAKVFESIGKFGLALAVAGGVVNSALYNVDAGHRAVIFDRFRGVQDIVVGEGTHFLIPWVQKPIIFDCRSRPRNVPVITGSKDLQNVNITLRILFRPVASQLPRIFTSIGEDYDERVLPSITTEILKSVVARFDAGELITQRELVSRQVSDDLTERAATFGLILDDVSLTHLTFGKEFTEAVEAKQVAQQEAERARFVVEKAEQQKKAAIISAEGDSKAAELIANSLATAGDGLIELRKLEAAEDIAYQLSRSRNITYLPAGQSVLLQLPQ
B4: MALT1 (protein, UniProt Q9UDY8 2-824, looked up)
Mucosa-associated lymphoid …: SLLGDPLQALPPSAAPTGPLLAPPAGATLNRLREPLLRRLSELLDQAPEGRGWRRLAELAGSRGRLRLSCLDLEQCSLKVLEPEGSPSLCLLKLMGEKGCTVTELSDFLQAMEHTEVLQLLSPPGIKITVNPESKAVLAGQFVKLCCRATGHPFVQYQWFKMNKEIPNGNTSELIFNAVHVKDAGFYVCRVNNNFTFEFSQWSQLDVCDIPESFQRSVDGVSESKLQICVEPTSQKLMPGSTLVLQCVAVGSPIPHYQWFKNELPLTHETKKLYMVPYVDLEHQGTYWCHVYNDRDSQDSKKVEIIIGRTDEAVECTEDELNNLGHPDNKEQTTDQPLAKDKVALLIGNMNYREHPKLKAPLVDVYELTNLLRQLDFKVVSLLDLTEYEMRNAVDEFLLLLDKGVYGLLYYAGHGYENFGNSFMVPVDAPNPYRSENCLCVQNILKLMQEKETGLNVFLLDMCRKRNDYDDTIPILDALKVTANIVFGYATCQGAEAFEIQHSGLANGIFMKFLKDRLLEDKKITVLLDEVAEDMGKCHLTKGKQALEIRSSLSEKRALTDPIQGTEYSAESLVRNLQWAKAHELPESMCLKFDCGVQIQLGFAAEFSNVMIIYTSIVYKPPEIIMCDAYVTDFPLDLDIDPKDANKGTPEETGSYLVSKDLPKHCLYTRLSSLQKLKEHLVFTVCLSYQYSGLEDTVEDKQEVNVGKPLIAKLDMHRGLGRKTCFQTCLMSNGPYQSSAATSGGAGHYHSLQDPFHGVYHSHPGNPSNVTPADSCHCSRTPDAFISSFAHHASCHFSRSNVPVETTDEIPFSFSDRLRISEK
B5: CSDE1 (protein, UniProt O75534 1-798, looked up)
Cold shock domain-containing …: MSFDPNLLHNNGHNGYPNGTSAALRETGVIEKLLTSYGFIQCSERQARLFFHCSQYNGNLQDLKVGDDVEFEVSSDRRTGKPIAVKLVKIKQEILPEERMNGQVVCAVPHNLESKSPAAPGQSPTGSVCYERNGEVFYLTYTPEDVEGNVQLETGDKINFVIDNNKHTGAVSARNIMLLKKKQARCQGVVCAMKEAFGFIERGDVVKEIFFHYSEFKGDLETLQPGDDVEFTIKDRNGKEVATDVRLLPQGTVIFEDISIEHFEGTVTKVIPKVPSKNQNDPLPGRIKVDFVIPKELPFGDKDTKSKVTLLEGDHVRFNISTDRRDKLERATNIEVLSNTFQFTNEAREMGVIAAMRDGFGFIKCVDRDVRMFFHFSEILDGNQLHIADEVEFTVVPDMLSAQRNHAIRIKKLPKGTVSFHSHSDHRFLGTVEKEATFSNPKTTSPNKGKEKEAEDGIIAYDDCGVKLTIAFQAKDVEGSTSPQIGDKVEFSISDKQRPGQQVATCVRLLGRNSNSKRLLGYVATLKDNFGFIETANHDKEIFFHYSEFSGDVDSLELGDMVEYSLSKGKGNKVSAEKVNKTHSVNGITEEADPTIYSGKVIRPLRSVDPTQTEYQGMIEIVEEGDMKGEVYPFGIVGMANKGDCLQKGESVKFQLCVLGQNAQTMAYNITPLRRATVECVKDQFGFINYEVGDSKKLFFHVKEVQDGIELQAGDEVEFSVILNQRTGKCSACNVWRVCEGPKAVAAPRPDRLVNRLKNITLDDASAPRLMVLRQPRGPDNSMGFGAERKIRQAGVID
B6: GPS2 (protein, UniProt Q13227 1-327, looked up)
G protein pathway suppressor 2: MPALLERPKLSNAMARALHRHIMMERERKRQEEEEVDKMMEQKMKEEQERRKKKEMEERMSLEETKEQILKLEEKLLALQEEKHQLFLQLKKVLHEEEKRRRKEQSDLTTLTSAAYQQSLTVHTGTHLLSMQGSPGGHNRPGTLMAADRAKQMFGPQVLTTRHYVGSAAAFAGTPEHGQFQGSPGGAYGTAQPPPHYGPTQPAYSPSQQLRAPSAFPAVQYLSQPQPQPYAVHGHFQPTQTGFLQPGGALSLQKQMEHANQQTGFSDSSSLRPMHPQALHPAPGLLASPQLPVQMQPAGKSGFAATSQPGPRLPFIQHSQNPRFYHK
B7: PLBD1 (protein, UniProt Q6P4A8 39-553, looked up)
Phospholipase B-like 1: GVYYATAYWMPAEKTVQVKNVMDKNGDAYGFYNNSVKTTGWGILEIRAGYGSQTLSNEIIMFVAGFLEGYLTAPHMNDHYTNLYPQLITKPSIMDKVQDFMEKQDKWTRKNIKEYKTDSFWRHTGYVMAQIDGLYVGAKKRAILEGTKPMTLFQIQFLNSVGDLLDLIPSLSPTKNGSLKVFKRWDMGHCSALIKVLPGFENILFAHSSWYTYAAMLRIYKHWDFNVIDKDTSSSRLSFSSYPGFLESLDDFYILSSGLILLQTTNSVFNKTLLKQVIPETLLSWQRVRVANMMADSGKRWADIFSKYNSGTYNNQYMVLDLKKVKLNHSLDKGTLYIVEQIPTYVEYSEQTDVLRKGYWPSYNVPFHEKIYNWSGYPLLVQKLGLDYSYDLAPRAKIFRRDQGKVTDTASMKYIMRYNNYKKDPYSRGDPCNTICCREDLNSPNPSPGGCYDTKVADIYLASQYTSYAISGPTVQGGLPVFRWDRFNKTLHQGMPEVYNFDFITMKPILKLDIK

Each molecule was assayed on Hsp90 complexes in Mia-PaCa-2 cell extract (assay: Nano-LC-MS/MS of PU-beads pull-downs). Conditions: protein identified in PU-beads pull-down of Mia-PaCa-2 cell extract; QSTAR-Elite QTof MS.
Assay type: binding, human
Procedure, shortened: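 They came from PU-bead pull-downs of pre-cleared lysates (control beads, overnight, 4 °C), eluted by boiling in 2% SDS, gel-separated and run by data-dependent nano-ESI QTof MS/MS.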

Row | Molecule | Number of Assigned Spectra, Mia-Paca 2
1 | B1 | 4
2 | B2 | 0
3 | B3 | 0
4 | B4 | 2
5 | B5 | 0
6 | B6 | 0
7 | B7 | 2

The molecules below were run on Hsp90 complexes in K562 cell extract (assay: Nano-LC-MS/MS of PU-beads pull-downs). Conditions: protein identified in PU-beads pull-down of K562 cell extract, Prep 1; QSTAR-Elite QTof MS.
Assay type: binding
Procedure, shortened: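 Proteins were identified by data-dependent nano LC-MS/MS (QTof, ESI) and Mascot searching (p<0.05), then reported as spectral counts and coverage via Scaffold. Inputs were PU-bead versus control-bead pull-downs from lysate pre-cleared with control beads overnight at 4 °C, eluted by boiling in 2% SDS.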

Row | Molecule | Number of Assigned Spectra, K562 Prep 1
8 | B1 | 0
9 | B2 | 2
10 | B3 | 5
11 | B4 | 0
12 | B5 | 4
13 | B6 | 5
14 | B7 | 0

Same assay, conditions: protein identified in PU-beads pull-down of K562 cell extract, Prep 2; QSTAR-Elite QTof MS

Row | Molecule | Number of Assigned Spectra, K562 Prep 2
15 | B1 | 0
16 | B2 | 0
17 | B3 | 0
18 | B4 | 0
19 | B5 | 0
20 | B6 | 0
21 | B7 | 0
